Test results from PMC6997106, “The Trp triad within the V-domain of the receptor for advanced glycation end products modulates folding, stability and ligand binding” (Bioscience Reports, 2020).
Substitutions are numbered along the chain they refer to. In names and notes the source's numbering stands.

B1: RAGE-derived peptide W72 (RAGE residues 65-79) (peptide)
peptide: Ac-SPQGGGPWDSVARVL-NH2
notes: RAGE, human, residues 65-79; also called W72 peptide; source: synthetic peptide
B2: RAGE V-domain (residues 23-132), wild type (domain or fragment, human, UniProt Q15109 23-132, looked up)
chain: AQNITARIGEPLVLKCKGAPKKPPQRLEWKLNTGRTEAWKVLSPQGGGPWDSVARVLPNGSLFLPAVGIQDEGIFRCQAMNRNGKETKSNYRVRVYQIPGKPEIVDSASE
notes: receptor for advanced glycation end products (RAGE), human, V-domain, residues 23-132 of uniprot Q15109; Cloned into pET15b by NcoI and XhoI; also called WT; wild-type V-domain; source: E. coli Shuffle T7 Express, purified (HisTrap HP, HiTrap SP FF cation exchange)
B3: RAGE V-domain (residues 23-132) W72A (domain or fragment, human, UniProt Q15109 23-132, looked up)
chain: B2 chain with W50A
notes: RAGE, human, V-domain, residues 23-132 of uniprot Q15109; Same construct as m1 with the mutation; source: E. coli Shuffle T7 Express, purified (HisTrap HP, HiTrap SP FF cation exchange)
B4: RAGE V-domain (residues 23-132) W61A (domain or fragment, human, UniProt Q15109 23-132, looked up)
chain: B2 chain with W39A
notes: as for B3
B5: FITC-labeled recombinant human S100B (natural protein)
chain: MSELEKAMVALIDVFHQYSGREGDKHKLKKSELKELINNELSHFLEEIKEQEVVDKVMETLDNDGDGECDFQEFMAFVAMVTTACHEFFEHE
modifications: fluorescein (FITC labeling kit, 5-fold excess of FITC over protein; sites not stated)
notes: S100B, human, uniprot P04271; the titrations were fitted with a 1:1 RAGE:S100B model; also called S100B-FITC; FITC-labeled S100B; source: labeled with an FITC labeling kit (Pierce/Thermo Fisher 53027)
B6: Recombinant human S100B (natural protein)
chain: B5 chain
notes: S100B, human, uniprot P04271; Homodimer in the crystal structure 5D7F; also called calcium-loaded S100B

How the values were obtained:
[1] = target: B6; assay: crystal structure; 2 mM S100B with 3 mM peptide W72, CaCl2 present; sitting drop, 0.1 M Na cacodylate pH 6.8, 22% PEG 3350, 5 mM CaCl2, 20°C; conditions: both partners purified
[2] = target: B6; assay: tryptophan fluorescence lifetime; 1 µM V-domain, with S100B in the presence of 2 mM calcium; excitation 280 nm; amplitude weighted average lifetime τm; conditions: both partners purified
[3] = target: T1, RAGE V-domain (residues 23-132) W51A/W61A (human, UniProt Q15109 23-132, W51A | W61A); assay: fluorescence polarisation; 1 µM S100B-FITC in 50 mM Tris, pH 7.0, 2 mM CaCl2 titrated with V-domain stock solutions; 1:1 RAGE:S100B model; apparent; conditions: both partners purified
T1 construct: RAGE, human, V-domain, residues 23-132 of uniprot Q15109; Same construct as m1 with the mutations; also called W51/W61; source: E. coli Shuffle T7 Express, purified (HisTrap HP, HiTrap SP FF cation exchange)

[4] = target: T2, RAGE V-domain (residues 23-132) W61A/W72A (human, UniProt Q15109 23-132, W61A | W72A); assay: as above; conditions: both partners purified
T2 construct: RAGE, human, V-domain, residues 23-132 of uniprot Q15109; Same construct as m1 with the mutations; source: E. coli Shuffle T7 Express, purified (HisTrap HP, HiTrap SP FF cation exchange)

[5] = target: B3; assay: as above; conditions: both partners purified
[6] = target: T3, RAGE V-domain (residues 23-132) W51A (human, UniProt Q15109 23-132, W51A); assay: as above; conditions: both partners purified
T3 construct: RAGE, human, V-domain, residues 23-132 of uniprot Q15109; Same construct as m1 with the mutation; source: E. coli Shuffle T7 Express, purified (HisTrap HP, HiTrap SP FF cation exchange)

[7] = target: B2; assay: as above; conditions: both partners purified
[8] = target: T4, RAGE V-domain (residues 23-132) W51A/W72A (human, UniProt Q15109 23-132, W51A | W72A); assay: as above; conditions: both partners purified
T4 construct: RAGE, human, V-domain, residues 23-132 of uniprot Q15109; Same construct as m1 with the mutations; source: E. coli Shuffle T7 Express, purified (HisTrap HP, HiTrap SP FF cation exchange)

[9] = target: B4; assay: as above; conditions: both partners purified
[10] = target: T1, RAGE V-domain (residues 23-132) …; assay: steady-state tryptophan fluorescence; emission spectra of V-domains alone and as V-domain:S100B complexes; excitation at 295 nm; conditions: both partners purified
[11] = target: T2, RAGE V-domain (residues 23-132) …; assay: as above; conditions: both partners purified
[12] = target: B3; assay: as above; conditions: both partners purified
[13] = target: T3, RAGE V-domain (residues 23-132) W51A; assay: as above; conditions: both partners purified
[14] = target: B2; assay: as above; conditions: both partners purified
[15] = target: T4, RAGE V-domain (residues 23-132) …; assay: as above; conditions: both partners purified
[16] = target: B4; assay: as above; conditions: both partners purified
[17] = target: the molecule itself; assay: crystal structure; 2 mM S100B with 3 mM peptide W72, CaCl2 present; sitting drop, 0.1 M Na cacodylate pH 6.8, 22% PEG 3350, 5 mM CaCl2, 20°C

B1: binds [1].

With B2 the “Δτm (change of the average Trp fluorescence lifetime with S100B)” value [2] was -0.83 ns.

For B3, the “Δτm (change of the average Trp fluorescence lifetime with S100B)” value [2] was -1 ns.

In the case of B4, the “Δτm (change of the average Trp fluorescence lifetime with S100B)” value [2] is reported as -0.8 ns.

B5 gave a Kd [3] of 660 ± 120 nM, a Kd [4] of 370 ± 90 nM and a Kd [5] of 1120 ± 1010 nM. For the same binder, the Kd [6] was 480 ± 60 nM, the Kd [7] was 2700 ± 300 nM and the Kd [8] was 460 ± 320 nM. It also gave a Kd [9] of 870 ± 40 nM.

B6: binds [10]; binds [11]; binds [12]. B6: binds [13]; binds [14]; binds [15]. B6: binds [16]; binds [17].
